This assay has as its target PSD95 (HA-PSD95, VN-PSD95 plasmids) (UniProt P31016). Briefly: co-immunoprecipitation, GFP-SPIN90 and HA-PSD95. Particulars: reference: GFP-SPIN90 WT; sites Y85,Y161,Y227.

Here are results for one substance from article PMC3544810.

Take “SPIN90 (from UniProt Q9NZQ3) GFP-SPIN90 YF (Y85,161,227F)”: the “binding against the reference” value was “weaker”.
